Assay results taken from patent US20210071139A1.

Experiments:
Assay in all cases: anti-TOX IP from EL4 nuclear extract, LC-MS/MS, MiST
Afg3l1 = Afg3l1 (UniProt Q920A7)
Aldh18a1 = Aldh18a1 (UniProt Q9Z110)
Anln = Anln (UniProt Q8K298)
Ash2l = Ash2l (UniProt Q91X20)
Cdc27 = Cdc27 (UniProt A2A6Q5)
Dap3 = Dap3 (UniProt Q9ER88)
Ddx55 = Ddx55 (UniProt Q6ZPL9)
Dido1 = Dido1 (UniProt Q8C9B9)
Eif4h = Eif4h (UniProt Q9WUK2)
Gm10094; Sap18 = target: Gm10094; Sap18
Ing2 = Ing2 (UniProt Q9ESK4)
Larp7 = Larp7 (UniProt Q05CL8)
Myo6 = Myo6 (UniProt Q64331)
Pdlim1 = Pdlim1 (UniProt O70400)
Pml = Pml (UniProt Q60953)
Ppp1r10 = Ppp1r10 (UniProt Q80W00)
Ptcd3 = Ptcd3 (UniProt Q14C51)
Rpl36a = Rpl36a (UniProt P83882)
Rrp1b = Rrp1b (UniProt Q91YK2)
Snx9 = Snx9 (UniProt Q91VH2)
Taf6 = Taf6 (UniProt Q62311)
Thoc2 = Thoc2 (UniProt B1AZI6)
Tsr1 = Tsr1 (UniProt Q5SWD9)
Wdhd1 = Wdhd1 (UniProt P59328)
Zfr = Zfr (UniProt O88532)
Chain of Zfr (O88532 whole entry): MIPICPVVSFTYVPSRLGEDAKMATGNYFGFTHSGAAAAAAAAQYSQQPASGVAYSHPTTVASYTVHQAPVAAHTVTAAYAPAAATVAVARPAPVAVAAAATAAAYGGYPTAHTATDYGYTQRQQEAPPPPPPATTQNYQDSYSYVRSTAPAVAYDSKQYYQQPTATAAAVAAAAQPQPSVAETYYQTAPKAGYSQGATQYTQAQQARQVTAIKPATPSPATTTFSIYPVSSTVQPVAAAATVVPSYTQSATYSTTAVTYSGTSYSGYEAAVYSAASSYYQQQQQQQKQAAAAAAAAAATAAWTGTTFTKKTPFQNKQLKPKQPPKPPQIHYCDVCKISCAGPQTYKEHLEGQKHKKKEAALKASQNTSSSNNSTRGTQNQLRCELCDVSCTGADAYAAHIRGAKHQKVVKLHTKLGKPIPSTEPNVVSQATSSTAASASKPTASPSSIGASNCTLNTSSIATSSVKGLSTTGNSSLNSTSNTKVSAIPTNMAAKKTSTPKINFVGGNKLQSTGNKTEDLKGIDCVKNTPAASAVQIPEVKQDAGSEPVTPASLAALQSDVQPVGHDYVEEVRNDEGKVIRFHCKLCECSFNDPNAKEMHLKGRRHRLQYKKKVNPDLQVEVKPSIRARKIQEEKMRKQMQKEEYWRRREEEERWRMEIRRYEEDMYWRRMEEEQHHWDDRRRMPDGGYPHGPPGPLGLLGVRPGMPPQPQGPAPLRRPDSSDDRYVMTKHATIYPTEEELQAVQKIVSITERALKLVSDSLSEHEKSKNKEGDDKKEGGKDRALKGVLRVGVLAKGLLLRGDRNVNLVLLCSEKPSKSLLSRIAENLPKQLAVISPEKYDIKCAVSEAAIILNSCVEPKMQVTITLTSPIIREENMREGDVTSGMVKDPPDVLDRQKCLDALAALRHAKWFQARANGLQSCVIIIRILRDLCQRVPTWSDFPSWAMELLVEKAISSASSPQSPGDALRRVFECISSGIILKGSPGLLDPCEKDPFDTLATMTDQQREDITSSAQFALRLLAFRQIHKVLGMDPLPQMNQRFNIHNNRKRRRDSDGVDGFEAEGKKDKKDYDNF

Chain of Aldh18a1 (Q9Z110 whole entry): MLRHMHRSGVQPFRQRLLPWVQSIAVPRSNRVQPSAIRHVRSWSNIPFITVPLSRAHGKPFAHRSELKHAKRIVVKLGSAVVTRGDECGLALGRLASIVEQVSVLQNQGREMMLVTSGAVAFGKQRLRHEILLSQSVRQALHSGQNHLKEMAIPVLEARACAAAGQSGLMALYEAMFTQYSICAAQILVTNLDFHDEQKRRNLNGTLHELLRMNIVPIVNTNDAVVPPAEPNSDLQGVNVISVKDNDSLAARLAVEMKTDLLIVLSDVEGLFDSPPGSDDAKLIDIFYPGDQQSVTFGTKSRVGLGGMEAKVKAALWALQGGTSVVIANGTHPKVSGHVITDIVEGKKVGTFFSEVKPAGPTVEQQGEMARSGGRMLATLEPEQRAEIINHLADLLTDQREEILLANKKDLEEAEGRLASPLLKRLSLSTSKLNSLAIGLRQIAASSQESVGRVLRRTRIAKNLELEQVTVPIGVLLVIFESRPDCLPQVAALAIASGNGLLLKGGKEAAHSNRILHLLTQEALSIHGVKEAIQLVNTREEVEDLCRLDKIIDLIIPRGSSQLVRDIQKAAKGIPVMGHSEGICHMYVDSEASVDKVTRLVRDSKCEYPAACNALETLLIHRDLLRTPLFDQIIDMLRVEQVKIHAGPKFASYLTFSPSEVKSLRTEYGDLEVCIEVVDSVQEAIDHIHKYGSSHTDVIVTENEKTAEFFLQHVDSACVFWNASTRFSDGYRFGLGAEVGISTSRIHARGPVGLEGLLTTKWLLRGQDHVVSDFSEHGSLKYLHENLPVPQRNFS
Chain of Cdc27 (A2A6Q5 whole entry): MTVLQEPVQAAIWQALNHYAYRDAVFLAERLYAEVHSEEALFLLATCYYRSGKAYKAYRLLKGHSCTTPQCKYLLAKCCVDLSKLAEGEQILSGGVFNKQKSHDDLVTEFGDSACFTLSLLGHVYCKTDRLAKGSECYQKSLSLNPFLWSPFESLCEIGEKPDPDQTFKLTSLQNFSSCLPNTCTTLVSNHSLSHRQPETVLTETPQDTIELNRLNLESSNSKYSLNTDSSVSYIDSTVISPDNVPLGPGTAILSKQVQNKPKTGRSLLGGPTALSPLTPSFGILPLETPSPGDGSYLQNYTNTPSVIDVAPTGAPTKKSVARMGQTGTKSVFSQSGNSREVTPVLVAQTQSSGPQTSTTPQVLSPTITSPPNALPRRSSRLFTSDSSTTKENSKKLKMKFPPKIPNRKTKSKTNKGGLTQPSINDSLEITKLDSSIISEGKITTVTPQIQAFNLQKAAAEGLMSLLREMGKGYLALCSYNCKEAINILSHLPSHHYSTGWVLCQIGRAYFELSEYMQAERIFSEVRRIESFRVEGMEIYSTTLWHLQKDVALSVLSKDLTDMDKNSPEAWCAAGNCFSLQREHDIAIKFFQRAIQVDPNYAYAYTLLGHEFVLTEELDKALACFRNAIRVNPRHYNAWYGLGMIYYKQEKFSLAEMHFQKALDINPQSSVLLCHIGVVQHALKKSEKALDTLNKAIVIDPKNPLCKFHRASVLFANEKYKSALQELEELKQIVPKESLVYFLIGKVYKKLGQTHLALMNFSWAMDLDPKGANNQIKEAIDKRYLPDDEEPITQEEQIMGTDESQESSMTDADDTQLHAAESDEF
Chain of Ash2l (Q91X20 whole entry): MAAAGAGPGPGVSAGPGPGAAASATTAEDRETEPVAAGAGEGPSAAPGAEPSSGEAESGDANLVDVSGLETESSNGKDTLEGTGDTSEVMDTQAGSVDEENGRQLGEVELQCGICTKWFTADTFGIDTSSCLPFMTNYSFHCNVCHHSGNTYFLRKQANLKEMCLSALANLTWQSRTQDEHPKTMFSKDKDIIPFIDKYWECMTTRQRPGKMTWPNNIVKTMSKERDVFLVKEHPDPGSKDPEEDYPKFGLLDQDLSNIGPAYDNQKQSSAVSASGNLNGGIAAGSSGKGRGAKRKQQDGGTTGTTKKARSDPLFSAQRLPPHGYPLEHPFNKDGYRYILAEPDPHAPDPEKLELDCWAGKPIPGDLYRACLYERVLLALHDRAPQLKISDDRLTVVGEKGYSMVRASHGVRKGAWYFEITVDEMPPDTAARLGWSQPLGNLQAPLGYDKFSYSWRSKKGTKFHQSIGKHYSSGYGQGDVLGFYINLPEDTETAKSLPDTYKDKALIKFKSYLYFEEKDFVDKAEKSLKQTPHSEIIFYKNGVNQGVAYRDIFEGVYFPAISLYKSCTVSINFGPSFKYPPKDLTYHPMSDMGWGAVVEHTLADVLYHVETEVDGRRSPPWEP
Chain of Eif4h (Q9WUK2 2-248 limits assumed): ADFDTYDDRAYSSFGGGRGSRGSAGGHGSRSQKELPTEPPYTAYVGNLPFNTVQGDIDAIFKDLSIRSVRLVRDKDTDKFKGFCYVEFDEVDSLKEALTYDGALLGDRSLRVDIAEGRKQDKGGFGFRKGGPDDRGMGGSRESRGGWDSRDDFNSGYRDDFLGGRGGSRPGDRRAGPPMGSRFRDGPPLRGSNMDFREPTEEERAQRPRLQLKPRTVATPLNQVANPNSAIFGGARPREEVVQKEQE
Chain of Pdlim1 (O70400 2-327 limits assumed): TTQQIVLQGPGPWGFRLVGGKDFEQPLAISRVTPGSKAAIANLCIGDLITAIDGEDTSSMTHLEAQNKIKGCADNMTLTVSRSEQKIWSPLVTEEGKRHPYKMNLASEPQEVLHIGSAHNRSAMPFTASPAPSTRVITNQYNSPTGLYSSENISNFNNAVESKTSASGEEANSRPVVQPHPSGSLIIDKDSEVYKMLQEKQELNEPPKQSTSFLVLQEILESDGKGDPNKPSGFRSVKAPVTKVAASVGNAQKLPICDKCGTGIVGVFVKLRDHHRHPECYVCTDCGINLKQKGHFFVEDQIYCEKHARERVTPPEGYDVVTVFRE
Chain of Larp7 (Q05CL8 whole entry): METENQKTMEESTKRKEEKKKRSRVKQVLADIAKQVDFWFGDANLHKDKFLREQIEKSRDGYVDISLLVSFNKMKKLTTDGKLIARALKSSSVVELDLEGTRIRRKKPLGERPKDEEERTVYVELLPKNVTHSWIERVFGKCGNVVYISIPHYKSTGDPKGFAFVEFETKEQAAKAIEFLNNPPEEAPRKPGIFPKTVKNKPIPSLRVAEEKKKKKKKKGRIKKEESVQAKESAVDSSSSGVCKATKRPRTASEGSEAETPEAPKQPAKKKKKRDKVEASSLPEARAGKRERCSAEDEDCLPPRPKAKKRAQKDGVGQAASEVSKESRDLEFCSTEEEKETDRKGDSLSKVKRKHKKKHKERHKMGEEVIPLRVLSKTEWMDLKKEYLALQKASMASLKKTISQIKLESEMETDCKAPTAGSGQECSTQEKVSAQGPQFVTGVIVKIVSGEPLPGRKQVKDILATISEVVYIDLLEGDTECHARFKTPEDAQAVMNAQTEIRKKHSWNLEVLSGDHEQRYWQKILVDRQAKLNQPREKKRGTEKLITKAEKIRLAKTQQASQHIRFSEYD
Chain of TOX (Q66JW3 whole entry): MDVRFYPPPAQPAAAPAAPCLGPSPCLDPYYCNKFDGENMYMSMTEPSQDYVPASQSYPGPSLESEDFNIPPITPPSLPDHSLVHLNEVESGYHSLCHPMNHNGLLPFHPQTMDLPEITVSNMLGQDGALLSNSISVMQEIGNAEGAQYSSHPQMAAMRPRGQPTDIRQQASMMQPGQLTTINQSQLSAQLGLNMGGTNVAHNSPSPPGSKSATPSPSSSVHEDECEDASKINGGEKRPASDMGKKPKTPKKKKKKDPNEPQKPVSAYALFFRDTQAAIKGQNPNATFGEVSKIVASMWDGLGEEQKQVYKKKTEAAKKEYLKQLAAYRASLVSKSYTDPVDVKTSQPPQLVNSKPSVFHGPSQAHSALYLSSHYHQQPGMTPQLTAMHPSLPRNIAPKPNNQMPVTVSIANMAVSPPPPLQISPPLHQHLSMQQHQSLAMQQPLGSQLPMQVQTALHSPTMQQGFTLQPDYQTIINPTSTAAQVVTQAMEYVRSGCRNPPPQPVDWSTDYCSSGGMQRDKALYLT

## TOX (from UniProt Q66JW3 1-526)
Afg3l1
  Abundance: 2.15e-06
  MiST Score: 0.874
  Reproducibility: 0.61
  Specificity: 1
Aldh18a1
  Abundance: 9.69e-06
  MiST Score: 0.887
  Reproducibility: 0.702
  Specificity: 0.979
Anln
  Abundance: 4.57e-07
  MiST Score: 0.861
  Reproducibility: 0.567
  Specificity: 1
Ash2l
  Abundance: 4.44e-06
  MiST Score: 0.879
  Reproducibility: 0.629
  Specificity: 1
Cdc27
  Abundance: 6.71e-06
  MiST Score: 0.87
  Reproducibility: 0.597
  Specificity: 1
Dap3
  Abundance: 2.69e-06
  MiST Score: 0.859
  Reproducibility: 0.561
  Specificity: 1
Ddx55
  Abundance: 2.21e-06
  MiST Score: 0.863
  Reproducibility: 0.574
  Specificity: 1
Dido1
  Abundance: 3.41e-07
  MiST Score: 0.878
  Reproducibility: 0.624
  Specificity: 1
Eif4h
  Abundance: 1.07e-05
  MiST Score: 0.869
  Reproducibility: 0.595
  Specificity: 1
Gm10094; Sap18
  Abundance: 2.26e-05
  MiST Score: 0.878
  Reproducibility: 0.625
  Specificity: 1
Ing2
  Abundance: 2.44e-05
  MiST Score: 0.878
  Reproducibility: 0.625
  Specificity: 1
Larp7
  Abundance: 9.12e-06
  MiST Score: 0.859
  Reproducibility: 0.896
  Specificity: 0.849
Myo6
  Abundance: 5.25e-07
  MiST Score: 0.88
  Reproducibility: 0.63
  Specificity: 1
Pdlim1
  Abundance: 1.21e-05
  MiST Score: 0.858
  Reproducibility: 0.559
  Specificity: 1
Pml
  Abundance: 8.97e-06
  MiST Score: 0.858
  Reproducibility: 0.557
  Specificity: 1
Ppp1r10
  Abundance: 1.37e-05
  MiST Score: 0.868
  Reproducibility: 0.65
  Specificity: 0.974
Ptcd3
  Abundance: 1.85e-06
  MiST Score: 0.88
  Reproducibility: 0.631
  Specificity: 1
Rpl36a
  Abundance: 0.000923
  MiST Score: 0.895
  Reproducibility: 0.679
  Specificity: 1
Rrp1b
  Abundance: 4.86e-06
  MiST Score: 0.875
  Reproducibility: 0.955
  Specificity: 0.847
Snx9
  Abundance: 5.29e-06
  MiST Score: 0.877
  Reproducibility: 0.621
  Specificity: 1
Taf6
  Abundance: 1.15e-06
  MiST Score: 0.864
  Reproducibility: 0.578
  Specificity: 1
Thoc2
  Abundance: 1.6e-06
  MiST Score: 0.859
  Reproducibility: 0.9
  Specificity: 0.848
Tsr1
  Abundance: 5.3e-06
  MiST Score: 0.862
  Reproducibility: 0.962
  Specificity: 0.824
Wdhd1
  Abundance: 1.64e-06
  MiST Score: 0.877
  Reproducibility: 0.619
  Specificity: 1
Zfr
  Abundance: 2.44e-06
  MiST Score: 0.866
  Reproducibility: 0.991
  Specificity: 0.817
